Measured values reported in article PMC9410875, “FOXL2 and FOXA1 cooperatively assemble on the TP53 promoter in alternative dimer configurations”.

Assays:
FOXL2-DBD [1] = molecular target: T1, FOXL2-DBD (Homo sapiens, UniProt P58012 52-148); test: ITC; 1:1 stoichiometry; 10 mM MgCl2, 298 K; ITC: 20 mM HEPES pH 7.5, 150 mM NaCl, 10 mM MgCl2, 298 K. EMSA: 2.5 uM DNA, 20 mM HEPES pH 7.5, 50 mM KCl, 10 mM MgCl2, 1 mM DTT, 10% glycerol, on ice 30 min; FOXA1 EMSA: 20 mM Tris-HCl pH 8.0, 0.1 mg/ml BSA, 50 uM ZnCl2, 100 mM KCl, 2 mM beta-mercaptoethanol, 10% glycerol (50 mM EDTA for Mg2+ depletion); settings: protein: recombinant; tags: GST tag cleaved by TEV; blunt
T1 sequence: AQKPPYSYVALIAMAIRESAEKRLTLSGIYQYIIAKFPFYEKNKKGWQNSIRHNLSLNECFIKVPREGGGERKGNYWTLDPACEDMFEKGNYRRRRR

FOXA1-DBD = molecular target: T2, FOXA1-DBD (UniProt P55317 168-264); test: X-ray crystallography; 2:1, 2.1 A; Mg2+ at dimer interface; ITC: 20 mM HEPES pH 7.5, 150 mM NaCl, 10 mM MgCl2, 298 K. EMSA: 2.5 uM DNA, 20 mM HEPES pH 7.5, 50 mM KCl, 10 mM MgCl2, 1 mM DTT, 10% glycerol, on ice 30 min; FOXA1 EMSA: 20 mM Tris-HCl pH 8.0, 0.1 mg/ml BSA, 50 uM ZnCl2, 100 mM KCl, 2 mM beta-mercaptoethanol, 10% glycerol (50 mM EDTA for Mg2+ depletion); settings: protein: recombinant; tags: GST tag cleaved by TEV; chain copies: 2; blunt
T2 sequence: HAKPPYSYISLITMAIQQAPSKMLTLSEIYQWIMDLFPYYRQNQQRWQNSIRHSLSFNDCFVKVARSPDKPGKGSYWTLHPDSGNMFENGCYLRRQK

FOXL2-DBD [2] = molecular target: T1, FOXL2-DBD; test: ITC; 2:1 stoichiometry, biphasic; Kd values not in the text; ITC: 20 mM HEPES pH 7.5, 150 mM NaCl, 10 mM MgCl2, 298 K. EMSA: 2.5 uM DNA, 20 mM HEPES pH 7.5, 50 mM KCl, 10 mM MgCl2, 1 mM DTT, 10% glycerol, on ice 30 min; FOXA1 EMSA: 20 mM Tris-HCl pH 8.0, 0.1 mg/ml BSA, 50 uM ZnCl2, 100 mM KCl, 2 mM beta-mercaptoethanol, 10% glycerol (50 mM EDTA for Mg2+ depletion); settings: protein: recombinant; tags: GST tag cleaved by TEV; blunt
FOXA1-DBD S177A = molecular target: T3, FOXA1-DBD S177A (UniProt P55317 168-264, S177A); test: EMSA; little change vs wild type; ITC: 20 mM HEPES pH 7.5, 150 mM NaCl, 10 mM MgCl2, 298 K. EMSA: 2.5 uM DNA, 20 mM HEPES pH 7.5, 50 mM KCl, 10 mM MgCl2, 1 mM DTT, 10% glycerol, on ice 30 min; FOXA1 EMSA: 20 mM Tris-HCl pH 8.0, 0.1 mg/ml BSA, 50 uM ZnCl2, 100 mM KCl, 2 mM beta-mercaptoethanol, 10% glycerol (50 mM EDTA for Mg2+ depletion); settings: protein: recombinant; label: 5' Cy3 on strand 1 (legends say Cy5); blunt
T3 sequence: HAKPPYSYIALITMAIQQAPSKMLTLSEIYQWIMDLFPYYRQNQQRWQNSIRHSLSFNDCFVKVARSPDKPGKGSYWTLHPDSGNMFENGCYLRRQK

FOXL2 full-length = molecular target: T4, FOXL2 full-length (UniProt P58012 1-376); test: EMSA; 1 or 10 ug protein; ITC: 20 mM HEPES pH 7.5, 150 mM NaCl, 10 mM MgCl2, 298 K. EMSA: 2.5 uM DNA, 20 mM HEPES pH 7.5, 50 mM KCl, 10 mM MgCl2, 1 mM DTT, 10% glycerol, on ice 30 min; FOXA1 EMSA: 20 mM Tris-HCl pH 8.0, 0.1 mg/ml BSA, 50 uM ZnCl2, 100 mM KCl, 2 mM beta-mercaptoethanol, 10% glycerol (50 mM EDTA for Mg2+ depletion); settings: protein: recombinant; label: 32P
T4 sequence: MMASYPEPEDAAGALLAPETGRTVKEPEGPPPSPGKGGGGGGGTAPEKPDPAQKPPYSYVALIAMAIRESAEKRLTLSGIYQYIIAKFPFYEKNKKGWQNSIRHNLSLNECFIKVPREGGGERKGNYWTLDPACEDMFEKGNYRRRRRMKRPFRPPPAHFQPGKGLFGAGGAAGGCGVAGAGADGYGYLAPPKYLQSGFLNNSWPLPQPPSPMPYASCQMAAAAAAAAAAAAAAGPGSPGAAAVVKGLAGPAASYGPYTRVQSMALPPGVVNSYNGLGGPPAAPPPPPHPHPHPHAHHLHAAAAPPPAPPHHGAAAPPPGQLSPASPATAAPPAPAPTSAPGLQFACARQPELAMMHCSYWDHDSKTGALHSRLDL

FOXL2-DBD [3] = molecular target: T1, FOXL2-DBD; test: ITC; 1:1 one-site curve; biphasic pattern lost; ITC: 20 mM HEPES pH 7.5, 150 mM NaCl, 10 mM MgCl2, 298 K. EMSA: 2.5 uM DNA, 20 mM HEPES pH 7.5, 50 mM KCl, 10 mM MgCl2, 1 mM DTT, 10% glycerol, on ice 30 min; FOXA1 EMSA: 20 mM Tris-HCl pH 8.0, 0.1 mg/ml BSA, 50 uM ZnCl2, 100 mM KCl, 2 mM beta-mercaptoethanol, 10% glycerol (50 mM EDTA for Mg2+ depletion); settings: protein: recombinant; tags: GST tag cleaved by TEV; blunt

B1: DBE2 DNA 16 bp (dsDNA)
DNA 1: CAAAATGTAAACAAGT
DNA 2: ACTTGTTTACATTTTG
Q: With B1 as the binder, how does the Kd (FOXL2-DBD [1]) read?
A: 790 ± 100 nM

B2: p53-DNA 16 bp (dsDNA)
DNA 1: AAATATTTATTATCGA
DNA 2: TCGATAATAAATATTT
Q: Which results are given for B2?
A: binding result (FOXA1-DBD): binds; binding result (FOXL2-DBD [2]): binds

B3: p53-DNA 26 bp (S0) (dsDNA)
DNA 1: TCAAAAAATATTTATTATCGAGCTCT
DNA 2: AGAGCTCGATAATAAATATTTTTTGA
Q: Does B3 bind (FOXA1-DBD S177A)?
A: binds

B4: TP53-DNA, 32P probe (dsDNA)
DNA 1: CCCTCATTCAAAAAATATTTATTATCGAGCTCTTACT
DNA 2: AGTAAGAGCTCGATAATAAATATTTTTTGAATGAGGG
Q: Does B4 bind (FOXL2 full-length)?
A: binds

B5: p53 mut2 16 bp (ITC) (dsDNA)
DNA 1: AAATATTTATCCCTCA
DNA 2: TGAGGGATAAATATTT
Q: Does B5 bind (FOXL2-DBD [3])?
A: binds
